± gives the uncertainty stated by the source.
B1: GA-binding protein alpha chain, residues 172 to 250; numbered along this chain, Q06546 (parent)
chain: GYRKEQERLGIPYDPIQWSTDQVLHWVVWVMKEFSMTDIDLTTLNISGRELCSLNQEDFFQRVPRGEILWSHLELLRKY

Variants of: B1
Test: abundance fitness (aPCA) (normalised: wild type 0, dead -1); higher = more abundant; growth selection in yeast, the domain comes from the species named
Settings: Homo sapiens

Variant	abundance fitness
GYRKEQERLGIPYDPIWWSTDQVLHWVVWVMKEFSMTDIDLTTLNISGRELCSLNQEDFFQRVPRGEILWSHLELLRKY [Q17W]	-0.08 ± 0.048
GYRKEQERLGIPYDPIEWSTDQVLHWVVWVMKEFSMTDIDLTTLNISGRELCSLNQEDFFQRVPRGEILWSHLELLRKY [Q17E]	0.049 ± 0.07
GYRKEQERLGIPYDPIAWSTDQVLHWVVWVMKEFSMTDIDLTTLNISGRELCSLNQEDFFQRVPRGEILWSHLELLRKY [Q17A]	-0.056 ± 0.043
GYRKEQERLGIPYDPICWSTDQVLHWVVWVMKEFSMTDIDLTTLNISGRELCSLNQEDFFQRVPRGEILWSHLELLRKY [Q17C]	-0.127 ± 0.06
GYRKEQERLGIPYDPIHWSTDQVLHWVVWVMKEFSMTDIDLTTLNISGRELCSLNQEDFFQRVPRGEILWSHLELLRKY [Q17H]	0.085 ± 0.082
GYRKEQERLGIPYDPIPWSTDQVLHWVVWVMKEFSMTDIDLTTLNISGRELCSLNQEDFFQRVPRGEILWSHLELLRKY [Q17P]	-0.942 ± 0.14
GYRKEQERLGIPYDPIFWSTDQVLHWVVWVMKEFSMTDIDLTTLNISGRELCSLNQEDFFQRVPRGEILWSHLELLRKY [Q17F]	-0.28 ± 0.1
GYRKEQERLGIPYDPIIWSTDQVLHWVVWVMKEFSMTDIDLTTLNISGRELCSLNQEDFFQRVPRGEILWSHLELLRKY [Q17I]	-0.269 ± 0.07
GYRKEQERLGIPYDPIGWSTDQVLHWVVWVMKEFSMTDIDLTTLNISGRELCSLNQEDFFQRVPRGEILWSHLELLRKY [Q17G]	-0.099 ± 0.04
GYRKEQERLGIPYDPIRWSTDQVLHWVVWVMKEFSMTDIDLTTLNISGRELCSLNQEDFFQRVPRGEILWSHLELLRKY [Q17R]	-0.009 ± 0.036
GYRKEQERLGIPYDPITWSTDQVLHWVVWVMKEFSMTDIDLTTLNISGRELCSLNQEDFFQRVPRGEILWSHLELLRKY [Q17T]	-0.029 ± 0.098
GYRKEQERLGIPYDPINWSTDQVLHWVVWVMKEFSMTDIDLTTLNISGRELCSLNQEDFFQRVPRGEILWSHLELLRKY [Q17N]	-0.062 ± 0.1
GYRKEQERLGIPYDPIDWSTDQVLHWVVWVMKEFSMTDIDLTTLNISGRELCSLNQEDFFQRVPRGEILWSHLELLRKY [Q17D]	0.017 ± 0.16
GYRKEQERLGIPYDPIVWSTDQVLHWVVWVMKEFSMTDIDLTTLNISGRELCSLNQEDFFQRVPRGEILWSHLELLRKY [Q17V]	-0.121 ± 0.043
GYRKEQERLGIPYDPILWSTDQVLHWVVWVMKEFSMTDIDLTTLNISGRELCSLNQEDFFQRVPRGEILWSHLELLRKY [Q17L]	-0.01 ± 0.034
GYRKEQERLGIPYDPIMWSTDQVLHWVVWVMKEFSMTDIDLTTLNISGRELCSLNQEDFFQRVPRGEILWSHLELLRKY [Q17M]	-0.134 ± 0.069
GYRKEQERLGIPYDPIKWSTDQVLHWVVWVMKEFSMTDIDLTTLNISGRELCSLNQEDFFQRVPRGEILWSHLELLRKY [Q17K]	-0.143 ± 0.059
GYRKEQERLGIPYDPIQKSTDQVLHWVVWVMKEFSMTDIDLTTLNISGRELCSLNQEDFFQRVPRGEILWSHLELLRKY [W18K]	-0.864 ± 0.15
GYRKEQERLGIPYDPIQHSTDQVLHWVVWVMKEFSMTDIDLTTLNISGRELCSLNQEDFFQRVPRGEILWSHLELLRKY [W18H]	-1 ± 0.46
GYRKEQERLGIPYDPIQLSTDQVLHWVVWVMKEFSMTDIDLTTLNISGRELCSLNQEDFFQRVPRGEILWSHLELLRKY [W18L]	-0.974 ± 0.087
GYRKEQERLGIPYDPIQFSTDQVLHWVVWVMKEFSMTDIDLTTLNISGRELCSLNQEDFFQRVPRGEILWSHLELLRKY [W18F]	-0.901 ± 0.28
GYRKEQERLGIPYDPIQDSTDQVLHWVVWVMKEFSMTDIDLTTLNISGRELCSLNQEDFFQRVPRGEILWSHLELLRKY [W18D]	-1.05 ± 0.24
GYRKEQERLGIPYDPIQASTDQVLHWVVWVMKEFSMTDIDLTTLNISGRELCSLNQEDFFQRVPRGEILWSHLELLRKY [W18A]	-0.862 ± 0.11

Variant	abundance fitness
GYRKEQERLGIPYDPIQGSTDQVLHWVVWVMKEFSMTDIDLTTLNISGRELCSLNQEDFFQRVPRGEILWSHLELLRKY [W18G]	-0.779 ± 0.053
GYRKEQERLGIPYDPIQISTDQVLHWVVWVMKEFSMTDIDLTTLNISGRELCSLNQEDFFQRVPRGEILWSHLELLRKY [W18I]	-0.915 ± 0.24
GYRKEQERLGIPYDMIQWSTDQVLHWVVWVMKEFSMTDIDLTTLNISGRELCSLNQEDFFQRVPRGEILWSHLELLRKY [P15M]	-0.635 ± 0.11
GYRKEQERLGIPYDRIQWSTDQVLHWVVWVMKEFSMTDIDLTTLNISGRELCSLNQEDFFQRVPRGEILWSHLELLRKY [P15R]	-0.56 ± 0.04
GYRKEQERLGIPYDNIQWSTDQVLHWVVWVMKEFSMTDIDLTTLNISGRELCSLNQEDFFQRVPRGEILWSHLELLRKY [P15N]	-0.606 ± 0.11
GYRKEQERLGIPYDSIQWSTDQVLHWVVWVMKEFSMTDIDLTTLNISGRELCSLNQEDFFQRVPRGEILWSHLELLRKY [P15S]	-0.765 ± 0.066
GYRKEQERLGIPYDFIQWSTDQVLHWVVWVMKEFSMTDIDLTTLNISGRELCSLNQEDFFQRVPRGEILWSHLELLRKY [P15F]	-0.717 ± 0.094
GYRKEQERLGIPYDCIQWSTDQVLHWVVWVMKEFSMTDIDLTTLNISGRELCSLNQEDFFQRVPRGEILWSHLELLRKY [P15C]	-0.742 ± 0.08
GYRKEQERLGIPYDHIQWSTDQVLHWVVWVMKEFSMTDIDLTTLNISGRELCSLNQEDFFQRVPRGEILWSHLELLRKY [P15H]	-0.813 ± 0.23
GYRKEQERLGIPYDAIQWSTDQVLHWVVWVMKEFSMTDIDLTTLNISGRELCSLNQEDFFQRVPRGEILWSHLELLRKY [P15A]	-0.641 ± 0.067
GYRKEQERLGIPYDVIQWSTDQVLHWVVWVMKEFSMTDIDLTTLNISGRELCSLNQEDFFQRVPRGEILWSHLELLRKY [P15V]	-0.243 ± 0.036
GYRKEQERLGIPYDWIQWSTDQVLHWVVWVMKEFSMTDIDLTTLNISGRELCSLNQEDFFQRVPRGEILWSHLELLRKY [P15W]	-1.09 ± 0.15
GYRKEQERLGIPYDQIQWSTDQVLHWVVWVMKEFSMTDIDLTTLNISGRELCSLNQEDFFQRVPRGEILWSHLELLRKY [P15Q]	-0.878 ± 0.19
GYRKEQERLGIPYDGIQWSTDQVLHWVVWVMKEFSMTDIDLTTLNISGRELCSLNQEDFFQRVPRGEILWSHLELLRKY [P15G]	-0.888 ± 0.073
GYRKEQERLGIPYDEIQWSTDQVLHWVVWVMKEFSMTDIDLTTLNISGRELCSLNQEDFFQRVPRGEILWSHLELLRKY [P15E]	-1 ± 0.15
GYRKEQERLGIPYDYIQWSTDQVLHWVVWVMKEFSMTDIDLTTLNISGRELCSLNQEDFFQRVPRGEILWSHLELLRKY [P15Y]	-0.901 ± 0.28
GYRKEQERLGIPYDLIQWSTDQVLHWVVWVMKEFSMTDIDLTTLNISGRELCSLNQEDFFQRVPRGEILWSHLELLRKY [P15L]	-0.72 ± 0.058
GYRKEQERLGIPYDIIQWSTDQVLHWVVWVMKEFSMTDIDLTTLNISGRELCSLNQEDFFQRVPRGEILWSHLELLRKY [P15I]	-0.356 ± 0.066
GYRKEQERLGIPYDTIQWSTDQVLHWVVWVMKEFSMTDIDLTTLNISGRELCSLNQEDFFQRVPRGEILWSHLELLRKY [P15T]	-1.07 ± 0.23
GYRKEQERLGIPYQPIQWSTDQVLHWVVWVMKEFSMTDIDLTTLNISGRELCSLNQEDFFQRVPRGEILWSHLELLRKY [D14Q]	-0.344 ± 0.08
GYRKEQERLGIPYVPIQWSTDQVLHWVVWVMKEFSMTDIDLTTLNISGRELCSLNQEDFFQRVPRGEILWSHLELLRKY [D14V]	-0.856 ± 0.071
GYRKEQERLGIPYTPIQWSTDQVLHWVVWVMKEFSMTDIDLTTLNISGRELCSLNQEDFFQRVPRGEILWSHLELLRKY [D14T]	-0.868 ± 0.24
GYRKEQERLGIPYPPIQWSTDQVLHWVVWVMKEFSMTDIDLTTLNISGRELCSLNQEDFFQRVPRGEILWSHLELLRKY [D14P]	-0.596 ± 0.066

Variant	abundance fitness
GYRKEQERLGIPYRPIQWSTDQVLHWVVWVMKEFSMTDIDLTTLNISGRELCSLNQEDFFQRVPRGEILWSHLELLRKY [D14R]	-0.954 ± 0.064
GYRKEQERLGIPYSPIQWSTDQVLHWVVWVMKEFSMTDIDLTTLNISGRELCSLNQEDFFQRVPRGEILWSHLELLRKY [D14S]	-0.205 ± 0.036
GYRKEQERLGIPYYPIQWSTDQVLHWVVWVMKEFSMTDIDLTTLNISGRELCSLNQEDFFQRVPRGEILWSHLELLRKY [D14Y]	-0.57 ± 0.11
GYRKEQERLGIPYNPIQWSTDQVLHWVVWVMKEFSMTDIDLTTLNISGRELCSLNQEDFFQRVPRGEILWSHLELLRKY [D14N]	-0.072 ± 0.06
GYRKEQERLGIPYMPIQWSTDQVLHWVVWVMKEFSMTDIDLTTLNISGRELCSLNQEDFFQRVPRGEILWSHLELLRKY [D14M]	-0.784 ± 0.081
GYRKEQERLGIPYWPIQWSTDQVLHWVVWVMKEFSMTDIDLTTLNISGRELCSLNQEDFFQRVPRGEILWSHLELLRKY [D14W]	-0.651 ± 0.055
GYRKEQERLGIPYDPKQWSTDQVLHWVVWVMKEFSMTDIDLTTLNISGRELCSLNQEDFFQRVPRGEILWSHLELLRKY [I16K]	-0.025 ± 0.085
GYRKEQERLGIPYDPRQWSTDQVLHWVVWVMKEFSMTDIDLTTLNISGRELCSLNQEDFFQRVPRGEILWSHLELLRKY [I16R]	-0.013 ± 0.03
GYRKEQERLGIPYDPMQWSTDQVLHWVVWVMKEFSMTDIDLTTLNISGRELCSLNQEDFFQRVPRGEILWSHLELLRKY [I16M]	0.032 ± 0.26
GYRKEQERLGIPYDPQQWSTDQVLHWVVWVMKEFSMTDIDLTTLNISGRELCSLNQEDFFQRVPRGEILWSHLELLRKY [I16Q]	0.036 ± 0.074
GYRKEQERLGIPYDPCQWSTDQVLHWVVWVMKEFSMTDIDLTTLNISGRELCSLNQEDFFQRVPRGEILWSHLELLRKY [I16C]	0.036 ± 0.054
GYRKEQERLGIPYDPEQWSTDQVLHWVVWVMKEFSMTDIDLTTLNISGRELCSLNQEDFFQRVPRGEILWSHLELLRKY [I16E]	0.101 ± 0.079
GYRKEQERLGIPYDPVQWSTDQVLHWVVWVMKEFSMTDIDLTTLNISGRELCSLNQEDFFQRVPRGEILWSHLELLRKY [I16V]	-0.014 ± 0.034
GYRKEQERLGIPYDPPQWSTDQVLHWVVWVMKEFSMTDIDLTTLNISGRELCSLNQEDFFQRVPRGEILWSHLELLRKY [I16P]	-0.458 ± 0.059
GYRKEQERLGIPYDPYQWSTDQVLHWVVWVMKEFSMTDIDLTTLNISGRELCSLNQEDFFQRVPRGEILWSHLELLRKY [I16Y]	0.037 ± 0.09
GYRKEQERLGIPYDPFQWSTDQVLHWVVWVMKEFSMTDIDLTTLNISGRELCSLNQEDFFQRVPRGEILWSHLELLRKY [I16F]	-0.027 ± 0.064
GYRKEQERLGIPYDPHQWSTDQVLHWVVWVMKEFSMTDIDLTTLNISGRELCSLNQEDFFQRVPRGEILWSHLELLRKY [I16H]	0.099 ± 0.073
GYRKEQERLGIPYDPTQWSTDQVLHWVVWVMKEFSMTDIDLTTLNISGRELCSLNQEDFFQRVPRGEILWSHLELLRKY [I16T]	-0.065 ± 0.069
GYRKEQERLGIPYDPAQWSTDQVLHWVVWVMKEFSMTDIDLTTLNISGRELCSLNQEDFFQRVPRGEILWSHLELLRKY [I16A]	-0.021 ± 0.041
GYRKEQERLGIPYDPDQWSTDQVLHWVVWVMKEFSMTDIDLTTLNISGRELCSLNQEDFFQRVPRGEILWSHLELLRKY [I16D]	-0.116 ± 0.086
GYRKEQERLGIPYDPLQWSTDQVLHWVVWVMKEFSMTDIDLTTLNISGRELCSLNQEDFFQRVPRGEILWSHLELLRKY [I16L]	-0.012 ± 0.036
GYRKEQERLGIPYDPWQWSTDQVLHWVVWVMKEFSMTDIDLTTLNISGRELCSLNQEDFFQRVPRGEILWSHLELLRKY [I16W]	-0.016 ± 0.056
GYRKEQERLGIPYDPNQWSTDQVLHWVVWVMKEFSMTDIDLTTLNISGRELCSLNQEDFFQRVPRGEILWSHLELLRKY [I16N]	-0.082 ± 0.07

From the Human Domainome abundance scans (Beltran et al. 2025)
